From the nanobody polyreactivity screen of Harvey et al. (2022)

Test: yeast display, Sf9 membrane polyspecificity reagent, FACS + sequencing; frameworks hold sequencing errors
In short: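 Nanobodies from a synthetic yeast display library (Saccharomyces cerevisiae BJ5465), induced 36–48 hours with galactose, were stained 1 hour at 4 °C with 10% biotinylated, detergent-solubilized Sf9 membrane reagent, enriched on streptavidin microbeads, then FACS-sorted. Anti-HA (expression) and streptavidin (reagent binding) fluorescence set low and high (top ~1%) gates. Polyreactivity labels come from the gate of origin. Genes were colony-PCR amplified, MiSeq 2 × 250 sequenced and filtered by CDR length.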

Sequence: QVQLVESGGGLVQAGGSLRLSCAASGLTFYFNAMVWYRQAPVKERQLVAAIDWGGGSTYYADSVKGRFTISRDNAKNTVYLQMNSLNPEDTAVYYCGARGYYYNYDVNYWVQGTQVTVSS
- polyreactivity (PSR sort gate): low polyreactivity

Sequence: QVQLVESGGGLVQAGGSLRLSCAASGYTFKTYAMGWYIQAPGKERELVAAISGSGGSTYYADSVKGRFTISRDNAKNTVYLQMNSLKPEDTEVYFCAATNWWGTEYDYWGQGTQVTVSS
- polyreactivity (PSR sort gate): high polyreactivity

Sequence: QVQLVESGGGLVQAGGSLRLSCAASGRKLSWNTMGWYRQAPGKETELVACITQNVGSTYYADSVKGRFTISRDNAKNTVYIQMKSLKPEDTAVYYCAAKRLSWHRYGYWGQGTQETVSS
- polyreactivity (PSR sort gate): low polyreactivity

Sequence: QVQLVESGGGLVQAGGSLRLSCAASGSIFSINTMGWYRQAPGKERELVATITWSVGSTNYADSVKGRFTISRDNAKNTVYLQMNSLKPEDTAVYYCNADSSRWPYRLYRFYYWGQGTQVTVSS
- polyreactivity (PSR sort gate): low polyreactivity

Sequence: QVQLVESGGGLVQAGGSLRLRCAASGLIFIFNAMGWYRQAPGKERELVAAIDTSDDSTYYADSVKGRFTISRDNAKNTVYLQMNSMKPEDTAVYYCAAEELSNYEYWGQGTQVTVSS
- polyreactivity (PSR sort gate): low polyreactivity

Sequence: QVQLVESGGGLVQAGGSLRLSCAASGRIFSVYALGWYRQAPGKERELVAAISSGDSTYYADSVKGRFTISRDNAKNTVYLQMNSLKPDDTAVFYCAATFPFHDGDYWGQGTQVTVSS
- polyreactivity (PSR sort gate): low polyreactivity

Sequence: QVQLVESGGGLVQAGGSLRLSCAASGYILPKNTMGWYRQAPGKERELVAAISWSGGSTFYADSVKGRFTISRDNAKHTVYLQMNSLKPEDTAVYYCAADRSWSWYYRYDYWGQGTQVTVSS
- polyreactivity (PSR sort gate): low polyreactivity

Sequence: QVQLVESGGGLVHSGGSLRLSCAASGRIFLPYGMGWYRKAPGKERELVATITIGGSTTYADSVKGRFTISRDNAKNTVYLLMNSLKPEDTAVYYCAVLRWVYYLHGYDYWGHGTQVTVSS
- polyreactivity (PSR sort gate): low polyreactivity

Sequence: QVQLVESGGGLVQAGGSLRLICAASGFTFSYYAMVWYRQAPGKERELVAVISDRGGITYYADSVKGRFTISRDNAKNTVYLQMNSLKPEDTAVYYCAAQNPRYNYRYYYWGQGTQVTVSS
- polyreactivity (PSR sort gate): low polyreactivity

Sequence: QVQLVESGGGLVQAGGSLRLSCAASGRTFDFYAMGWYRQAPGKERELVASNTFSTGSTTYADSVKGRFTISRDNAKITVYLQMNILKPEDTAVYYCAADGDCWWWSYVDRYDYWGQGTQVTVSS
- polyreactivity (PSR sort gate): low polyreactivity

Sequence: QVQLVESGGGLVQAGGSLRLSCAASGSIFYSYAMAWYRQAPGKERELVAAITSGGSTYYADSVKGRFTISRDNAKNTVYLQMNTLKPEDTAVYYCAKRWPAYWGKGHGSWGQGTQVTVSS
- polyreactivity (PSR sort gate): high polyreactivity

Sequence: QVQLVESGGGLVQAGGSLRLSCAASGSIFEWYAMGWYRQAPGKERELVADISSVGSTYYADSVKGRFTISRDNAKNTVYLQMNSLKPEDTAVYYCNTSYIIWYDSWGQGTQVTVSS
- polyreactivity (PSR sort gate): low polyreactivity

Sequence: QVQLVESGGGLLQAGGSLRKSCAASGFTFDENSMGGYRQAPAINYSGASTYYAVSVKGRFTISRDNAKNTVYLQMNSLKPEDTAVYYCAAEVVAQMIYWGQGTQVTVSS
- polyreactivity (PSR sort gate): low polyreactivity

Sequence: QVQLVESGGGLVQAGGSLRLSCAASGIIFRGYVMGWYRQAPGKERELVADISRGGSTYYADSVKGRFTISRDNAKNTVYLQMNSQKPEDTAVYYCAKDYYACYWEMDYWGQGTQVTVSS
- polyreactivity (PSR sort gate): low polyreactivity

Sequence: QVQLVESGGGLVQAGGSLRLSCAASGGIFGSYAMGWYRQAPGKERELVAAISGGSTYYADSVKGRFTISRDNAKNTVYLQMNSLKPEDTAVYYCAAGWSVWYQDFDYWGQGTQVTVSS
- polyreactivity (PSR sort gate): high polyreactivity

Sequence: QVQLVESGGGLVQAGGSLRLSCAASGNTFANYAMGWYRQAPGKERELVAAITSNGGSTYYADSVKGRFTISRDNAKNTVYLQMNSLKPEDTAVYYCAAPGAISTRSRYGPGYTYDYWGQVTQVTVSS
- polyreactivity (PSR sort gate): low polyreactivity

Sequence: QVQLVESGGLLVQAGGSLRLSCAASGRISPKNAMGWYRQAPGKERELVATIRKIGGRTYYADSVKGRFTISRDNAKNTVYLQMNSLKTEDTAVYYCATDFAPSYYPDRFDYWGQGTQVTVSS
- polyreactivity (PSR sort gate): low polyreactivity

Sequence: QVHLVESGGGLVQAGGSLRLSCAASGSIFAYYAMGWYRQAPGKEWEVVAAINWRVGRTYYADSVNGRFTISRDNAKNTVYLQMNSLKPEDTAVYYCAAVYRNQYRGSRFDYWGQGTQVTVSS
- polyreactivity (PSR sort gate): high polyreactivity

Sequence: QVQLVDSGGGLVQAGGSLRLTSAASGRIFVRNAMGWYRPAPGKERELVAASSWSSGGTYYADSVKGRFTISRDNAKNRVYLQMNSLKPEETAVYSCIADTSRAGVYWGQGTQVTVSS
- polyreactivity (PSR sort gate): low polyreactivity

Sequence: QVQLEESGGGLVQAGGSLRLSCAASGRTFYRSAMGWYRPEPGKERELVAAITWSGGSTYYAVSVKGRFTTSRDNAKNTVYLQMNSLKPEDTAVYYCARRLYPYRPTAYDYWGQGTQVTVSS
- polyreactivity (PSR sort gate): low polyreactivity

Sequence: QVQLVESGGGLVQAGGSLRLSCAASGGIFDTYVMGWYRQAPGKERELVAAITWSGGSTYYADSVKGRFTISRDNAKNTVYLQMNSLKPEDTAVYYCAASGYPIYHDDYWGQGTQVTVSS
- polyreactivity (PSR sort gate): low polyreactivity

Sequence: QVQLVESGGGLVQAGGSLRLSCAASGRTFGVNAMGWYRQAPRKERELVAAINRGGSTYYADSVKGRFTISRDNAKNTVYLQMISLNPEDTAVYYCAAYVSAVHGISGYWGQGTQVTVSS
- polyreactivity (PSR sort gate): low polyreactivity

Sequence: QVQLVESGGGLVQAGGSLRLSCAASGSTFNLNAMGWYRQAPGKERELVAAIDSGGRTNYADSVKGRFTISRDNAKNTVYLQMNSLKPEDTAVYYCAARVLPYLTPRRQMYYWGQGTQVTVSS
- polyreactivity (PSR sort gate): low polyreactivity

Sequence: QVQLVESGGGLVQAGGSLRLSCAASGFTFDPYAMGWYRQAPGKERELVAAISWIGTNTYYADSVKGRFTISRDNAKNTVYLLMNSLKPEDTAVYYCAADGPTIAVGSYDYWGQGTQVTVSS
- polyreactivity (PSR sort gate): low polyreactivity

Sequence: QVQLVESGGGLVQAGGNLRLSCAASGLIFGGYAMGWYRPAPGKERELVAAISRTGGRTYYADSVKVRFTISRDNAKNTVYLQMNSLKPEDTAVYYCATKRWWVRYDYWGQGTQVTVSS
- polyreactivity (PSR sort gate): high polyreactivity

Sequence: QVQLVESGGGLVQAGGSLRLSCAASGSIFGVYAMGWYRQAPGKERGLVARISGSSGSTRYADSVKGRFTISRDNAKNTVYLQMNSLKPEDTAVYYCAARAIFRQGDRIYDSWGQGTQVTVSS
- polyreactivity (PSR sort gate): high polyreactivity

Sequence: QVQLVESGGGLVQAGGSLRLSCAASGRIFGANAMGWSRQAPGKERELVATITYVGTSTYYADSVKGRFTISRDNAKNTVYLQMNSLKPEDTAVYYCAADGYSVFAAILGEYFDYDYWGQGSQVTVSS
- polyreactivity (PSR sort gate): low polyreactivity

Sequence: QVQLVESGGGLDQAGGSLRLSCAASRSTFPHYAMGWYRQAPGKERELVAAIYSTGGSTYYADSVKGRFTISRDNAKNTVYLQMNSLKPEDTAVYYCAASRLYWGQGNQVTVSS
- polyreactivity (PSR sort gate): high polyreactivity

Sequence: QVQLVESGGGLVQAGGSLRLSCAASGSTFPYYAMGWYRQAPGKERELVATITTSGVSTYYADSVKGRFTISRDNAKNTVYLQMNSLKPEDTAVYYCAADPPGFTQYGYWGQGTQVTVSS
- polyreactivity (PSR sort gate): low polyreactivity

Sequence: QVQLVESGGGLVQPGGSLRLSCAASGFIFYWYAMGWYRQAPGKERELVAAISYDTGSTYYADSVKGRFTISRDNAKITVYFQINSLKPEDTAVYYCAADASWRVYTGYYWGQGTQVTVSS
- polyreactivity (PSR sort gate): high polyreactivity

Sequence: QVQLQESGGHLEQSGGSLRLSCTASGTISDVRVMGWYRQAPGKERELVATISYVTITYYADSVKGRFTISRDSEKHRVSADDEPETGRYRGVLLRYYWGLGTQVTVSS
- polyreactivity (PSR sort gate): low polyreactivity

Sequence: QVQLVESGGGLVQPGGSLRLSCAASGRTFGDYVMGWDREAPGKERELVAVITYRGGSTYYADSVKGRFTISRDNAKNTVHLQMNSLKPEDTAVYYCAAAARAGLKRYYYWGQGTQVTVSS
- polyreactivity (PSR sort gate): high polyreactivity

Sequence: QVQLVESGGRLVQAGGSLRLSCAASGGIFPPNAKGWYRQAPGKERELVASISSDGSTNYADSVKGRFTISRDNAKNTVYLQMNSLKPEDTAVYYCAADSTTSWARLHVRRFYYWGQGTQVTVSS
- polyreactivity (PSR sort gate): low polyreactivity

Sequence: QVQLVESGGGLVQAGGSLRLSCAASGIFGVNTMGWYRQAPGKERELVASITSGGSTNYADSVKGRFTISRDNAKNTVYLQMNSLKPEDTAVYYCAAGLYLQGPFDYWGQGTQVTVSS
- polyreactivity (PSR sort gate): low polyreactivity

Sequence: QVQLVESGGGLVQAGGSLRLSCAASGRTFPSYAMGWYRQAAGKERELVAAITVSGGNTYYADSVKGRFTISRDNAKNTVYLQMNSLKPEDTAVYYCNTASYVSWYVHYYYWGQGTQVTVSS
- polyreactivity (PSR sort gate): low polyreactivity

Sequence: QVQLEESGGGLVQAGGSLRLSCAASGSTFKTYASGWYRQAPGKERELVAAISWSGGSTYYAESVKGRFTISRDNAKNTVYLQMNSLKPEDTAVYYCNAGWGYPSPWFIGEYWGQGTQVTVSS
- polyreactivity (PSR sort gate): low polyreactivity

Sequence: QVHLVESGGGLVQAGGSLRLSCAASGLIFYDNMGWYRQAPGKERELVAAISSSGGSTSYADSVKGRFTISRDNAKNTVYLQMYSLKPEDTAVYYCAADSYPAYLGFVGYDYWGQGTQVTVSS
- polyreactivity (PSR sort gate): low polyreactivity

Sequence: QVQLVESGGGLVQAGGSLRLSCAASGRILYYYAMGWYRQAPGKERELVATITRTTGSTYYADSVKGRFTISRDNAKNTVYLQMNSLKPEDTAVYYCAARWGRWIRDNYWGQGTQVSVSS
- polyreactivity (PSR sort gate): high polyreactivity

Sequence: QVQLVESGGGLVQAGGSLRLSCAASGRTFGSYAMGWNRQAPGKERELVAAISSSGGRTYYADSVKGRFTISRDNAKNTVYLQMNSLKPEDTGVYYCNADVQWNIWEYDYWGQGTQVTVSS
- polyreactivity (PSR sort gate): high polyreactivity

Sequence: QVQLVESGGGLDQAGGSLRLSCAASGFTFYPNAMGWYRQAPGKERELVAAINSGGSTYYADSVKGRFTISRDNAKNTVYLQMNSLKPEDTAVYYCAAYGKRGAVAFYYWGQGTQVTVSS
- polyreactivity (PSR sort gate): high polyreactivity

Sequence: QVQLVESGGGLVQAGGSLRLSCAASGSISYFNAMGWYRQAPGKERELVAAITSGGSTYYADSVKGRFTISLDNAKNTVYLQMNSLKPEDTAVYYCNAPLEWGVYAAQNWDDGYWGQGTQVTVSS
- polyreactivity (PSR sort gate): low polyreactivity

Sequence: QVQLVDSGGGLVQAGGSLRLICAASGSTLGQYAMGWYRQAPGKERELVAAITARTGRTYYADSVKGRFTISRDNAKNTVYLQMNSMKPEDTAVYYCASVTFSYQDYYWGQGTQVTVSS
- polyreactivity (PSR sort gate): high polyreactivity

Sequence: QVQLVESGGGLVQAGGSLRLSCAASGSTFAFYAMGWYRQAAGKERELVAAITWDGGTTYYADSVKGRFTLSRDNAKNTVYLQMNSLKPEDTAVYYCASDYAWFSIYDNVPSAPGYDYWGQGTQVTVSS
- polyreactivity (PSR sort gate): low polyreactivity
